According to IntAct's records for PubMed 15047801:

B1: Zinc finger CCCH domain-containing protein 7B (Homo sapiens), Q9UGR2 (parent)
chain: MERQKRKADIEKGLQFIQSTLPLKQEEYEAFLLKLVQNLFAEGNDLFREKDYKQALVQYMEGLNVADYAASDQVALPRELLCKLHVNRAACYFTMGLYEKALEDSEKALGLDSESIRALFRKARALNELGRHKEAYECSSRCSLALPHDESVTQLGQELAQKLGLRVRKAYKRPQELETFSLLSNGTAAGVADQGTSNGLGSIDDIETDCYVDPRGSPALLPSTPTMPLFPHVLDLLAPLDSSRTLPSTDSLDDFSDGDVFGPELDTLLDSLSLVQGGLSGSGVPSELPQLIPVFPGGTPLLPPVVGGSIPVSSPLPPASFGLVMDPSKKLAASVLDALDPPGPTLDPLDLLPYSETRLDALDSFGSTRGSLDKPDSFMEETNSQDHRPPSGAQKPAPSPEPCMPNTALLIKNPLAATHEFKQACQLCYPKTGPRAGDYTYREGLEHKCKRDILLGRLRSSEDQTWKRIRPRPTKTSFVGSYYLCKDMINKQDCKYGDNCTFAYHQEEIDVWTEERKGTLNRDLLFDPLGGVKRGSLTIAKLLKEHQGIFTFLCEICFDSKPRIISKGTKDSPSVCSNLAAKHSFYNNKCLVHIVRSTSLKYSKIRQFQEHFQFDVCRHEVRYGCLREDSCHFAHSFIELKVWLLQQYSGMTHEDIVQESKKYWQQMEAHAGKASSSMGAPRTHGPSTFDLQMKFVCGQCWRNGQVVEPDKDLKYCSAKARHCWTKERRVLLVMSKAKRKWVSVRPLPSIRNFPQQYDLCIHAQNGRKCQYVGNCSFAHSPEERDMWTFMKENKILDMQQTYDMWLKKHNPGKPGEGTPISSREGEKQIQMPTDYADIMMGYHCWLCGKNSNSKKQWQQHIQSEKHKEKVFTSDSDASGWAFRFPMGEFRLCDRLQKGKACPDGDKCRCAHGQEELNEWLDRREVLKQKLAKARKDMLLCPRDDDFGKYNFLLQEDGDLAGATPEAPAAAATATTGE

Variants of: B1
Details: with nsp3_rots4 nsp3, Q00721
nsp3_rots4 nsp3, Q00721, sequence (Q00721 whole entry): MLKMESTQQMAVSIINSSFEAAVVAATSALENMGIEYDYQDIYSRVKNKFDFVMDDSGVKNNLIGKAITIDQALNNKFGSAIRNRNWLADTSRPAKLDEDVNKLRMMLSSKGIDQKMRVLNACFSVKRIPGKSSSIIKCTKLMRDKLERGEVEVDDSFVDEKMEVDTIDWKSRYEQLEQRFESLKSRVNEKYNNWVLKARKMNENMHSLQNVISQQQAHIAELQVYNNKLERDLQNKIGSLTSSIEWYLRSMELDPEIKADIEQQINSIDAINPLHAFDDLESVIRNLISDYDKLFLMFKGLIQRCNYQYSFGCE

Row | Variant | effect of a mutation on the interaction
1 | L252A;D253A;D254A | decreasing interaction
